Measurements taken from US20260092097A1 (ALTOR BIOSCIENCE, published 2026).

T1: IL-15 receptor (IL-15RβγC) on 32Dβ cells (human; mouse, UniProt P14784 27-551; P34902 23-369)
T1 sequence (looked up) 1: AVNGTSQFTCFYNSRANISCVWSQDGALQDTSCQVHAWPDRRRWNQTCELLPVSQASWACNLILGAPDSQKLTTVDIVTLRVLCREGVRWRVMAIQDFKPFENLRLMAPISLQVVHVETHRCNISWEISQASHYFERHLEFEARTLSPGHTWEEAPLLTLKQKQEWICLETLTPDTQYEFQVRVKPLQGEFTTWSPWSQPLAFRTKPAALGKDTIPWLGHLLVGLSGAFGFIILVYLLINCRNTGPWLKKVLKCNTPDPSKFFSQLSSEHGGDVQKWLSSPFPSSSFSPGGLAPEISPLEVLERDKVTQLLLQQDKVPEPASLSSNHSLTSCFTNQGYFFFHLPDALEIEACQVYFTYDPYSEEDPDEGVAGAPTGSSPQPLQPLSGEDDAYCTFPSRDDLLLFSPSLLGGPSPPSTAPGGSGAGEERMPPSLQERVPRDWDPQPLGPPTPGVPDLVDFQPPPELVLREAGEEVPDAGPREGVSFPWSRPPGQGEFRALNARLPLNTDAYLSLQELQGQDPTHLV
T1 sequence (looked up) 2: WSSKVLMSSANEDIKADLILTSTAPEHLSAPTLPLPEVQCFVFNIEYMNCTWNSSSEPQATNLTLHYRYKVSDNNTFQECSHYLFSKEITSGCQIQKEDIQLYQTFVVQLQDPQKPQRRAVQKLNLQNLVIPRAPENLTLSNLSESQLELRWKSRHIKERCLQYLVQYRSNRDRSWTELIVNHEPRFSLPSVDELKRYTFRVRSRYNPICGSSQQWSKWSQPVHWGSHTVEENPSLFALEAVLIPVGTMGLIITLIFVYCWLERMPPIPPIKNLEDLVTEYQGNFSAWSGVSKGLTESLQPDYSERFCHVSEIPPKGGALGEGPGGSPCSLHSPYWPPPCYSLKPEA

B1: in vitro assembled IL-15N72D:IL-15RαSu/Fc complex (IL-15N72D:IL-15RαSu/Fc IVA) (Fc fusion)
chain 1: PELLGG
chain 2: PEAAGG
B2: IL-15N72D:IL-15RαSu/Fc complex (Alt-803) (Fc fusion)
chain 1: PELLGG
chain 2: PEAAGG

Target: T1, IL-15 receptor (IL-15RβγC) on 32Dβ cells
Test: cell-based or functional assay

| Binder | IL-15 dependent 32Dβ cell proliferation, EC50 [nM] |
| --- | --- |
| B1 | 0.0158 |
| B2 | 0.0156 |
